Test [1] deals with HIV-1 Pr55^Gag (untagged full length wild type Gag polyprotein) (HIV-1). Briefly: SEC. (SEC sorts molecules by how far they enter the pores of the column.)
Test [2] shares this target. The experiment in a line: SEC-MALS.
Test [3] concerns the target HIV-1 Pr55^Gag-ENLYFQ (Pr55^Gag-TEV-His after removal of the tag with TEV protease) (HIV-1). Briefly: SEC.
Test [4] deals with HIV-1 Pr55^Gag with a TEV-cleavable C-terminal hexahistidine tag, uncleaved (HIV-1). The experiment in a line: SEC.
Test [5] deals with HIV-1 Pr55^Gag with a non-cleavable C-terminal hexahistidine tag (HIV-1). The experiment in a line: SEC.

The record followed here is publication PMC5536344.

By stoichiometry N is commonly meant a count of units in the complex or per binding partner.

Consider “HIV-1 Pr55^Gag (untagged full length wild type Gag polyprotein) (natural protein)”, for which the stoichiometry N in test [1] and in test [2] was 2 each time. “HIV-1 Pr55^Gag-ENLYFQ (Pr55^Gag-TEV-His after removal of the tag with TEV protease) (natural protein)” showed a stoichiometry N in test [3] of 2. Substance “HIV-1 Pr55^Gag with a TEV-cleavable C-terminal hexahistidine tag, uncleaved (natural protein)” came in with a stoichiometry N in test [4] of 2.

Substance “HIV-1 Pr55^Gag with a non-cleavable C-terminal hexahistidine tag (natural protein)” gave a stoichiometry N in test [5] of 2.
